Series [1] relates to HeLa Kyoto. Put plainly: melting temperature (median over replicates), in situ; higher = more thermally stable.
Series [2] relates to HeLa Kyoto. Put plainly: solubility in G1/S (NP-40 vs SDS abundance) (log2 ratio); higher = more soluble. Conditions: cell cycle stage: G1/S.
Series [3] relates to HeLa Kyoto. Put plainly: thermal stability score vs G1/S (z-score of summed log2 fold changes over temperatures); higher = more thermally stable than in G1/S.
The test system of series [4] is HeLa Kyoto. Put plainly: solubility change mitosis vs G1/S (difference of NP-40 vs SDS log2 ratios) (log2 ratio difference); higher = more soluble in mitosis.
[5] abbreviates: cell cycle stage: early G1 (4.5 h after nocodazole release).
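Throughout, for melting temperature (median over replicates), in situ: HeLa Kyoto cells synchronized by double thymidine or nocodazole block, proteins quantified by TMT10plex mass spectrometry, three independent biological replicates.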
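Throughout, for solubility change mitosis vs G1/S (difference of NP-40 vs SDS log2 ratios): synchronized HeLa Kyoto cells (double thymidine block for G1/S, nocodazole release for mitosis), protein amounts in NP-40 versus SDS lysates quantified by mass spectrometry, three biological replicates.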
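Throughout, for solubility in G1/S (NP-40 vs SDS abundance): HeLa Kyoto cells arrested at G1/S by double thymidine block, proteins quantified by TMT10plex mass spectrometry in mild NP-40 versus SDS extracts, three biological replicates.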
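Throughout, for thermal stability score vs G1/S (z-score of summed log2 fold changes over temperatures): synchronized HeLa Kyoto cells, proteins quantified by TMT10plex mass spectrometry, three biological replicates, mitosis taken 0.5 h after nocodazole release, G1/S directly after double thymidine block.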

On to “MAAEREPPPLGDGKPTDFEDLEDGEDLFTSTVSTLESSPSSPEPASLPAEDISANSNGPKPTEVVLDDDREDLFAEATEEVSLDSPEREPILSSEPSPAVTPVTPTTLIAPRIESKSMSAPVIFDRSREEIEEEANGDIFDIEIGVSDPEKVGDGMNAYMAYRVTTKTSLSMFSKSEFSVKRRFSDFLGLHSKLASKYLHVGYIVPPAPEKSIVGMTKVKVGKEDSSSTEFVEKRRAALERYLQRTVKHPTLLQDPDLRQFLESSELPRAVNTQALSGAGILRMVNKAADAVNKMTIKMNESDAWFEEKQQQFENLDQQLRKLHVSVEALVCHRKELSANTAAFAKSAAMLGNSEDHTALSRALSQLAEVEEKIDQLHQEQAFADFYMFSELLSDYIRLIAAVKGVFDHRMKCWQKWEDAQITLLKKREAEAKMMVANKPDKIQQAKNEIREWEAKVQQGERDFEQISKTIRKEVGRFEKERVKDFKTVIIKYLESLVQTQQQLIKYWEAFLPEAKAIA [SNX2]”, for which the melting temperature in the series on HeLa Kyoto [1] (cell cycle stage: G1/S) was found to be 51.4 °C; in the series on HeLa Kyoto [1] (cell cycle stage: mitosis) it was 51.2 °C. The “solubility in G1/S (log2)” value in the series on HeLa Kyoto [2] worked out at 0.143. In addition, the thermal stability score in the series on HeLa Kyoto [3] (setting [5]) is 0.424; with HeLa Kyoto [3] (cell cycle stage: mitosis), -0.352. In the series with HeLa Kyoto [4], the “solubility change mitosis (log2)” value was -0.226.

“MAAEWASRFWLWATLLIPAAAVYEDQVGKFDWRQQYVGKVKFASLEFSPGSKKLVVATEKNVIAALNSRTGEILWRHVDKGTAEGAVDAMLLHGQDVITVSNGGRIMRSWETNIGGLNWEITLDSGSFQALGLVGLQESVRYIAVLKKTTLALHHLSSGHLKWVEHLPESDSIHYQMVYSYGSGVVWALGVVPFSHVNIVKFNVEDGEIVQQVRVSTPWLQHLSGACGVVDEAVLVCPDPSSRSLQTLALETEWELRQIPLQSLDLEFGSGFQPRVLPTQPNPVDASRAQFFLHLSPSHYALLQYHYGTLSLLKNFPQTALVSFATTGEKTVAAVMACRNEVQKSSSSEDGSMGSFSEKSSSKDSLACFNQTYTINLYLVETGRRLLDTTITFSLEQSGTRPERLYIQVFLKKDDSVGYRALVQTEDHLLLFLQQLAGKVVLWSREESLAEVVCLEMVDLPLTGAQAELEGEFGKKADGLLGMFLKRLSSQLILLQAWTSHLWKMFYDARKPRSQIKNEINIDTLARDEFNLQKMMVMVTASGKLFGIESSSGTILWKQYLPNVKPDSSFKLMVQRTTAHFPHPPQCTLLVKDKESGMSSLYVFNPIFGKWSQVAPPVLKRPILQSLLLPVMDQDYAKVLLLIDDEYKVTAFPATRNVLRQLHELAPSIFFYLVDAEQGRLCGYRLRKDLTTELSWELTIPPEVQRIVKVKGKRSSEHVHSQGRVMGDRSVLYKSLNPNLLAVVTESTDAHHERTFIGIFLIDGVTGRIIHSSVQKKAKGPVHIVHSENWVVYQYWNTKARRNEFTVLELYEGTEQYNATAFSSLDRPQLPQVLQQSYIFPSSISAMEATITERGITSRHLLIGLPSGAILSLPKALLDPRRPEIPTEQSREENLIPYSPDVQIHAERFINYNQTVSRMRGIYTAPSGLESTCLVVAYGLDIYQTRVYPSKQFDVLKDDYDYVLISSVLFGLVFATMITKRLAQVKLLNRAWR [EMC1]”: the melting temperature came to 55.1 °C in the series with HeLa Kyoto [1] (cell cycle stage: G1/S) and 54.8 °C in the series with HeLa Kyoto [1] (cell cycle stage: mitosis). In addition, the “solubility in G1/S (log2)” value in the series with HeLa Kyoto [2] turned out to be 0.0605. The values for the thermal stability score in the series on HeLa Kyoto [3] (setting [5]) and in the series with HeLa Kyoto [3] (cell cycle stage: mitosis) were 1.42 and 1.57, respectively. Moreover, the “solubility change mitosis (log2)” value with HeLa Kyoto [4] is -0.266.

“MAAGGRMEDGSLDITQSIEDDPLLDAQLLPHHSLQAHFRPRFHPLPTVIIVNLLWFIHLVFVVLAFLTGVLCSYPNPNEDKCPGNYTNPLKVQTVIILGKVILWILHLLLECYIQYHHSKIRNRGYNLIYRSTRHLKRLALMIQSSGNTVLLLILCMQHSFPEPGRLYLDLILAILALELICSLICLLIYTVKIRRFNKAKPEPDILEEEKIYAYPSNITSETGFRTISSLEEIVEKQGDTIEYLKRHNALLSKRLLALTSSDLGCQPSRT [TMEM192]”: the melting temperature in the series with HeLa Kyoto [1] (cell cycle stage: G1/S) was found to be 55.6 °C; in the series on HeLa Kyoto [1] (cell cycle stage: mitosis), 55.9 °C. In the series on HeLa Kyoto [2], the “solubility in G1/S (log2)” value came to 0.0852. For the same sequence, the thermal stability score in the series with HeLa Kyoto [3] (setting [5]) was 0.271; in the series with HeLa Kyoto [3] (cell cycle stage: mitosis), -1.67. The “solubility change mitosis (log2)” value in the series on HeLa Kyoto [4] is -0.241.

As for “MAAGTAAALAFLSQESRTRAGGVGGLRVPAPVTMDSFFFGCELSGHTRSFTFKVEEEDDAEHVLALTMLCLTEGAKDECNVVEVVARNHDHQEIAVPVANLKLSCQPMLSLDDFQLQPPVTFRLKSGSGPVRITGRHQIVTMSNDVSEEESEEEEEDSDEEEVELCPILPAKKQGGRP [NPM3]”, the values for the melting temperature in the series on HeLa Kyoto [1] (cell cycle stage: G1/S) and with HeLa Kyoto [1] (cell cycle stage: mitosis) were 54 °C and 53 °C, respectively. For the same sequence, the “solubility in G1/S (log2)” value in the series on HeLa Kyoto [2] was -0.153. Also, the thermal stability score in the series with HeLa Kyoto [3] (setting [5]) was -0.577; in the series with HeLa Kyoto [3] (cell cycle stage: mitosis), -2.29. Also, in the series on HeLa Kyoto [4], the “solubility change mitosis (log2)” value turned out to be 0.0933.
